Read-outs that look alike come from different tables or passages of the source. No end group written: not given here. OPEG4 = PEG4 linker (Xa = -O-, formula XXVI) joining two peptide copies; NPEG4 = not defined here
B1: compound 4, OPEG4-(KETVV)2 (peptide)
peptide: OPEG4-KETVV
modifications: also: dimer: two copies bridged at N-termini by OPEG4
notes: Dimer of formula (XXXI), P1 = P2, no CPP
B2: compound 7, OPEG4-(VETVV)2 (peptide)
peptide: OPEG4-VETVV
modifications: also: dimer: two VETVV copies joined at their N-termini by the OPEG4 linker
notes: Dimer of formula (XXXIV), P1 = P2, no CPP
B3: compound 2, OPEG4-(KETLV)2 (peptide)
peptide: OPEG4-KETLV
modifications: also: dimer: two copies bridged at N-termini by OPEG4
notes: Dimer of formula (XXIX), P1 = P2, no CPP
B4: compound 5, OPEG4-(KETRV)2 (peptide)
peptide: OPEG4-KETRV
modifications: also: dimer: two KETRV copies joined at their N-termini by the OPEG4 linker
notes: Dimer of formula (XXXII), P1 = P2, no CPP
B5: compound 73, NPEG4-(KETLV)2 fused to L-Arg4 (Ac-RRRR-) (peptide)
peptide: NPEG4-KETLV
chain: Ac-RRRR-NPEG4
modifications: reading uncertain; also: two KETLV copies joined at their N-termini by the NPEG4 linker, CPP C-terminus linked to the NPEG4 nitrogen, printed as NPEG4-(KETLV)2 fused to L-Arg4 (Ac-RRRR-)
B6: compound 27, NPEG4-(KETVV)2 fused to L-Arg9 (Ac-RRRRRRRRR-) (peptide)
peptide: KETVV
chain: Ac-RRRRRRRRR
modifications: not fully specified (N-terminus, C-terminus); also: dimer: two copies bridged at N-termini by NPEG4, Arg9 C-terminus on NPEG4 nitrogen
notes: Branched compound CPP-NPEG4-(P1)(P2), formula (XXVIII); also called formula (XIX)
B7: compound 25, NPEG4-(KETTV)2 fused to L-Arg9 (Ac-RRRRRRRRR-) (peptide)
peptide: KETTV
chain: Ac-RRRRRRRRR
modifications: not fully specified (N-terminus, C-terminus); also: dimer: two copies bridged at N-termini by NPEG4, Arg9 C-terminus on NPEG4 nitrogen
notes: Branched compound CPP-NPEG4-(P1)(P2), formula (XXVIII); also called formula (XVIII)
B8: compound 33, NPEG4-(VETVV)2 fused to L-Arg9 (Ac-RRRRRRRRR-) (peptide)
peptide: VETVV
chain: Ac-RRRRRRRRR
modifications: not fully specified (N-terminus, C-terminus); also: dimer: two copies bridged at N-termini by NPEG4, Arg9 C-terminus on NPEG4 nitrogen
notes: also called formula (XXII)
B9: compound 29, NPEG4-(KETRV)2 fused to L-Arg9 (Ac-RRRRRRRRR-) (peptide)
peptide: KETRV
chain: Ac-RRRRRRRRR
modifications: not fully specified (N-terminus, C-terminus); also: dimer: two copies bridged at N-termini by NPEG4, Arg9 C-terminus on NPEG4 nitrogen
notes: Branched compound CPP-NPEG4-(P1)(P2), formula (XXVIII); also called formula (XX)
B10: compound 31, NPEG4-(ISTDV)2 fused to L-Arg9 (Ac-RRRRRRRRR-) (peptide)
peptide: ISTDV
chain: Ac-RRRRRRRRR
modifications: not fully specified (N-terminus, C-terminus); also: dimer: two copies bridged at N-termini by NPEG4, Arg9 C-terminus on NPEG4 nitrogen
notes: Branched compound CPP-NPEG4-(P1)(P2), formula (XXVIII); also called formula (XXI)
B11: compound 6, OPEG4-(ISTDV)2 (peptide)
peptide: OPEG4-ISTDV
modifications: also: dimer: two ISTDV copies joined at their N-termini by the OPEG4 linker
notes: Dimer of formula (XXXIII), P1 = P2, no CPP
B12: compound 50, NPEG4-(IETDV)2 fused to L-DPV3 (Ac-RKKRRRESRKKRRRES-) (peptide)
peptide: NPEG4-IETDV
chain: Ac-RKKRRRESRKKRRRES-NPEG4
modifications: reading uncertain; also: two IETDV copies joined at their N-termini by the NPEG4 linker, CPP C-terminus linked to the NPEG4 nitrogen, printed as NPEG4-(IETDV)2 fused to L-DPV3 (Ac-RKKRRRESRKKRRRES-)
notes: Branched compound CPP-NPEG4-(P1)(P2), formula (XXVIII)
B13: compound 52, NPEG4-(IETDV)2 fused to L-pVEC (Ac-LLIILRRRIRKQAHAHSK-) (peptide)
peptide: NPEG4-IETDV
chain: Ac-LLIILRRRIRKQAHAHSK-NPEG4
modifications: reading uncertain; also: two IETDV copies joined at their N-termini by the NPEG4 linker, CPP C-terminus linked to the NPEG4 nitrogen, printed as NPEG4-(IETDV)2 fused to L-pVEC (Ac-LLIILRRRIRKQAHAHSK-)
notes: as for B12
B14: compound 71, NPEG4-(KETLV)2 fused to L-Arg5 (Ac-RRRRR-) (peptide)
peptide: NPEG4-KETLV
chain: Ac-RRRRR-NPEG4
modifications: reading uncertain; also: two KETLV copies joined at their N-termini by the NPEG4 linker, CPP C-terminus linked to the NPEG4 nitrogen, printed as NPEG4-(KETLV)2 fused to L-Arg5 (Ac-RRRRR-)
notes: as for B12
B15: compound 67, NPEG4-(KETLV)2 fused to L-Arg7 (Ac-RRRRRRR-) (peptide)
peptide: NPEG4-KETLV
chain: Ac-RRRRRRR-NPEG4
modifications: reading uncertain; also: two KETLV copies joined at their N-termini by the NPEG4 linker, CPP C-terminus linked to the NPEG4 nitrogen, printed as NPEG4-(KETLV)2 fused to L-Arg7 (Ac-RRRRRRR-)
notes: as for B12

Legend:
Test in all cases: FP competition against fluorescent dimeric probe, Ki from IC50
[1] = molecular target: T1, PDZ1-2 of PSD-95 (postsynaptic density protein-95) (UniProt P78352 61-249, limits assumed)
T1 construct: domain: PDZ1-2; also called PSD-95 PDZ1-2; PSD-95 PDZ12
T1 sequence (P78352 61-249 limits assumed): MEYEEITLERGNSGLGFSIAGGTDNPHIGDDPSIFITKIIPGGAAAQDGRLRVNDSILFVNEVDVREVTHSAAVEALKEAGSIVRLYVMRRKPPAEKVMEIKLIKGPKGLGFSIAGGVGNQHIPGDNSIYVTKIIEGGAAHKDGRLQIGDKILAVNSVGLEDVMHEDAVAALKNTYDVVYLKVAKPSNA

[2] = molecular target: T1, PDZ1-2 of PSD-95 (postsynaptic density …); remark: listed apart in the source
[3] = molecular target: T1, PDZ1-2 of PSD-95 (postsynaptic density …); remark: listed apart in the source
[4] = molecular target: T1, PDZ1-2 of PSD-95 (postsynaptic density …); remark: listed apart in the source

Row | Binder | Ki [1] [nM] | Ki [3] [nM] | also measured
1 | B1 | 15.8 |  | 
2 | B2 | 17 |  | 
3 | B3 | 11.1 |  | 
4 | B4 | 53.2 |  | 
5 | B5 |  |  | Ki [2]: 11.1 nM
6 | B6 |  | 6.3 | 
7 | B7 |  | 5.6 | 
8 | B8 |  | 19.9 | 
9 | B9 |  | 10.1 | 
10 | B10 |  | 62.3 | 
11 | B11 | 53.1 |  | 
12 | B12 |  |  | Ki [4]: 16.6 nM
13 | B13 |  |  | Ki [4]: 13.3 nM
14 | B14 |  |  | Ki [2]: 10.9 nM
15 | B15 |  |  | Ki [2]: 5.8 nM

From patent publication US20240245793A1 (UNIVERSITY OF COPENHAGEN, published 2024)
